Reference: patent publication US20030087827
Read-outs that look alike come from different tables or passages of the source.

Experiments:
[1] = test system: pERTKR-MCA (pyr-Glu-Arg-Thr-Lys-Arg-methylcoumarinamide); test: enzyme assay, hydrolysis of fluorogenic substrate, least squares fit (EnzFitter)
Nona-L-arginine [2] = test system: T1, Nona-L-arginine
T1 sequence: RRRRRRRRR

Hexa-D-arginine = target: T2, Hexa-D-arginine
T2 chain: RRRRRR

Nona-L-arginine [3] = target: T3, Nona-L-arginine
T3 chain: RRRRRRRRR

Hexa-L-arginine = target: T4, Hexa-L-arginine
T4 chain: RRRRRR

[4] = target: pERTKR-MCA (pyr-Glu-Arg-Thr-Lys-Arg-methylcoumarinamide); test: enzyme assay, hydrolysis of fluorogenic substrate, least squares fit (EnzFitter); remark: listed apart in the source

B1: proprotein convertase PC1 (enzyme, UniProt P29120 111-753, looked up, species assumed)
Neuroendocrine convertase 1: SALRDSALNLFNDPMWNQQWYLQDTRMTAALPKLDLHVIPVWQKGITGKGVVITVLDDGLEWNHTDIYANYDPEASYDFNDNDHDPFPRYDPTNENKHGTRCAGEIAMQANNHKCGVGVAYNSKVGGIRMLDGIVTDAIEASSIGFNPGHVDIYSASWGPNDDGKTVEGPGRLAQKAFEYGVKQGRQGKGSIFVWASGNGGRQGDNCDCDGYTDSIYTISISSASQQGLSPWYAEKCSSTLATSYSSGDYTDQRITSADLHNDCTETHTGTSASAPLAAGIFALALEANPNLTWRDMQHLVVWTSEYDPLANNPGWKKNGAGLMVNSRFGFGLLNAKALVDLADPRTWRSVPEKKECVVKDNDFEPRALKANGEVIIEIPTRACEGQENAIKSLEHVQFEATIEYSRRGDLHVTLTSAAGTSTVLLAERERDTSPNGFKNWDFMSVHTWGENPIGTWTLRITDMSGRIQNEGRIVNWKLILHGTSSQPEHMKQPRVYTSYNTVQNDRRGVEKMVDPGEEQPTQENPKENTLVSKSPSSSSVGGRRDELEEGAPSQAMLRLLQSAFSKNSPPKQSPKKSPSAKLNIPYENFYEALEKLNKPSQLKDSEDSLYNDYVDVFYNTKPYKHRDDRLLQALVDILNEEN
Km [1]: The Kms of PC1, PC2, furin, and PACE4 were determined as 11, 42, 8, and 15 µM, respectively

B2: proprotein convertase PACE4 (enzyme, UniProt P29122 150-969, looked up, species assumed)
Proprotein convertase subtilisin/kexin type 6: QVRSDPQALYFNDPIWSNMWYLHCGDKNSRCRSEMNVQAAWKRGYTGKNVVVTILDDGIERNHPDLAPNYDSYASYDVNGNDYDPSPRYDASNENKHGTRCAGEVAASANNSYCIVGIAYNAKIGGIRMLDGDVTDVVEAKSLGIRPNYIDIYSASWGPDDDGKTVDGPGRLAKQAFEYGIKKGRQGLGSIFVWASGNGGREGDYCSCDGYTNSIYTISVSSATENGYKPWYLEECASTLATTYSSGAFYERKIVTTDLRQRCTDGHTGTSVSAPMVAGIIALALEANSQLTWRDVQHLLVKTSRPAHLKASDWKVNGAGHKVSHFYGFGLVDAEALVVEAKKWTAVPSQHMCVAASDKRPRSIPLVQVLRTTALTSACAEHSDQRVVYLEHVVVRTSISHPRRGDLQIYLVSPSGTKSQLLAKRLLDLSNEGFTNWEFMTVHCWGEKAEGQWTLEIQDLPSQVRNPEKQGKLKEWSLILYGTAEHPYHTFSAHQSRSRMLELSAPELEPPKAALSPSQVEVPEDEEDYTAQSTPGSANILQTSVCHPECGDKGCDGPNADQCLNCVHFSLGSVKTSRKCVSVCPLGYFGDTAARRCRRCHKGCETCSSRAATQCLSCRRGFYHHQEMNTCVTLCPAGFYADESQKNCLKCHPSCKKCVDEPEKCTVCKEGFSLARGSCIPDCEPGTYFDSELIRCGECHHTCGTCVGPGREECIHCAKNFHFHDWKCVPACGEGFYPEEMPGLPHKVCRRCDENCLSCAGSSRNCSRCKTGFTQLGTSCITNHTCSNADETFCEMVKSNRLCERKLFIQFCCRTCLLAG
Km [1]: The Kms of PC1, PC2, furin, and PACE4 were determined as 11, 42, 8, and 15 µM, respectively

B3: proprotein convertase PC2 (enzyme, UniProt P16519 110-638, looked up, species assumed)
Neuroendocrine convertase 2: GYRDINEIDINMNDPLFTKQWYLINTGQADGTPGLDLNVAEAWELGYTGKGVTIGIMDDGIDYLHPDLASNYNAEASYDFSSNDPYPYPRYTDDWFNSHGTRCAGEVSAAANNNICGVGVAYNSKVAGIRMLDQPFMTDIIEASSISHMPQLIDIYSASWGPTDNGKTVDGPRELTLQAMADGVNKGRGGKGSIYVWASGDGGSYDDCNCDGYASSMWTISINSAINDGRTALYDESCSSTLASTFSNGRKRNPEAGVATTDLYGNCTLRHSGTSAAAPEAAGVFALALEANLGLTWRDMQHLTVLTSKRNQLHDEVHQWRRNGVGLEFNHLFGYGVLDAGAMVKMAKDWKTVPERFHCVGGSVQDPEKIPSTGKLVLTLTTDACEGKENFVRYLEHVQAVITVNATRRGDLNINMTSPMGTKSILLSRRPRDDDSKVGFDKWPFMTTHTWGEDARGTWTLELGFVGSAPQKGVLKEWTLMLHGTQSAPYIDQVVRDYQSKLAMSKKEELEEELDEAVERSLKSILNKN
cleavage of the peptide by PC2 (HPLC) (Nona-L-arginine [2]): essentially no cleavage was observed after 24 h of incubation (results not shown) | Km [1]: The Kms of PC1, PC2, furin, and PACE4 were determined as 11, 42, 8, and 15 µM, respectively

B4: recombinant truncated mouse furin (protein)
chain: DVYQEPTDPKFPQQWYLSGVTQRDLNVKEAWAQGFTGHGIVVSILDDGIEKNHPDLAGNYDPGASFDVNDQDPDPQPRYTQMNDNRHGTRCAGEVAAVANNGVCGVGVAYNARIGGVRMLDGEVTDAVEARSLGLNPNHIHIYSASWGPEDDGKTVDGPARLAEEAFFRGVSQGRGGLGSIFVWASGNGGREHDSCNCDGYTNSIYTLSISSATQFGNVPWYSEACSSTLATTYSSGNQNEKQIVTTDLRQKCTESHTGTSASAPLAAGIIALTLEANKNLTWRDMQHLVVQTSKPAHLNADDWATNGVGRKVSHSYGYGLLDAGAMVALAQNWTTVAPQRKCIVEILVEPKDIGKRLEVRKAVTACLGEPNHITRLEHVQARLTLSYNRRGDLAIHLISPMGTRSTLLAARPHDYSADGFNDWAFMTTHSWDEDPAGEWVLEIENTSEANNYGTLTKFTLVLYGTAPEGLSTPPESSGCKTLTSSQACVVCEEGYSLHQKSCVQHCPPGFIPQVLDTHYSTENDVEIIRASVCTPCHASCATCQGPAPTDCLSCPSHASLDPVEQTCSRQSQSSRESRPQQQPPALRPEVEMEPRLQAGLASHLPE
cleavage of the peptide by furin (HPLC) (Hexa-D-arginine): essentially no cleavage was observed after 24 h of incubation (results not shown) | cleavage of the peptide by furin (HPLC) (Nona-L-arginine [3]): Cleavage of nona-L-arginine (SEQ ID NO 13) was first observed ˜40 min after reaction with furin had commenced, with the appearance of hexa- and hepta-L-arginine | cleavage of the peptide by furin (HPLC) (Hexa-L-arginine): essentially no cleavage was seen after six hours incubation with furin (results not shown). After 24 hours, partial digestion of hexa-L-arginine (SEQ ID NO 14) had occurred, producing some penta-L-arginine | Km [4]: The Kms of PC1, PC2, furin, and PACE4 were determined as 11, 42, 8, and 15 µM, respectively
